Results reported in patent US20120264231A1, “ASSAY FOR ORAI CALCIUM CHANNEL REGULATORS” (IMMUNE DISEASE INSTITUTE, INC., priority 2009, published 2012).

Assays:
human ORAI1 (65-301) = target: T1, human ORAI1 (65-301) (Homo sapiens, UniProt Q96D31, E106Q/N223A); test: Pichia membrane flotation assay, membranes containing ORAI1 (65-301); type: binding; conditions: sucrose gradient, Western blotting
T1 construct: human ORAI1 (65-301) with an N-terminal FLAG tag; made in house; host or cells: Pichia pastoris GS115 (microsomal membranes)
Protocol: A membrane flotation assay was used to evaluate binding of these recombinant STIM 1 proteins to ORAI1. For these experiments ORAI1 (65-301) was expressed, an N-terminally truncated ORAI1 protein that forms functional Ca^2+ channels in mammalian cells (Li, Z., et al., J Biol Chem 282, 29448-29456 (2007)), in the yeast Pichia pastoris. Microsomal membranes were prepared from P pastoris expressing ORAI1 (65-301), layered at the bottom of a discontinuous sucrose gradient, and centrifuged. After centrifugation, the recombinant ORAI 1 was recovered near the top of the gradient in the fraction visually identified as containing membranes (FIG. 2A), as expected for an integral membrane protein.
STIM 1, ORAI 1, and D3 cpV/D4 cpV expression constructs were engineered as described herein. Recombinant STIM 1 fragments were expressed in E coli, purified, and characterized by CD spectroscopy and SEC-MALLS. Binding of STIM 1 fragments to ORAI1 channels in their normal bilayer environment was assessed in a flotation assay, using microsomal membranes prepared from the yeast P pastoris and containing human ORAI1 (65-301). Binding of STIM1 fragments to recombinant ORAI^CT was assessed in a pulldown assay using GST-tagged ORAI1^CT.
P pastoris strain GS115 was transformed with SalI-linearized pPIC3.5K-ORAI1 by electroporation and selected on plates lacking histidine. H is transformants were further grown in the presence of 0.25-4 mg/mL G418 to select for yeast that had integrated multiple copies of pPIC3.5K into the genome. Selected colonies capable of growth on 0.5-4 mg/mL G418 were grown in small-scale culture, induced with methanol as detailed below, and their level of ORAI expression determined by Western blotting for the FLAG tag. P pastoris transformants were grown in minimal dextrose medium lacking histidine and induced with 0.5% methanol for 6-18 h. Cells were pelleted at 3,000×g for 15 min at 4° C. and resuspended in breaking buffer containing 50 mM sodium phosphate, 1 mM TCEP, 1 mM EDTA, 5% glycerol and complete protease inhibitor cocktail (Roche). […]

CD thermal unfolding = type: physicochemical; conditions: CD signal at 222 nm, 20 μM protein, pH 7.5
Protocol: CD spectra of STIM 1^CT fragments were recorded in a Jasco-810 spectropolarimeter at 25° C. using a 1-mm path length quartz cell with the protein concentration at 20 μM in 10 mM Tris-HCl, 150 mM KCl, 1 mM DTT at pH 7.5. All spectra were obtained as the average of at least ten scans with a scan rate of 50 nm/min. The ellipticity was measured from 190 to 260 nm and converted to mean residue molar ellipticity (deg cm^2 dmol^−1 res^−1). The calculation of secondary structure elements was performed by using DICHROWEB, an online server for protein secondary structure analyses (Whitmore, L. & Wallace, B. A. Nucleic Acids Res 32, W668-W673 (2004)). Thermal unfolding measurements were performed using a 1 mm quartz cell with a protein concentration of 20 μM in the same buffer. To obtain the thermal transition point, the signal changes at 222 nm were fitted using the equation: ΔS=ΔSmax/[…]), where ΔS and ΔSmax are the signal changes at each data point and at the final data point, Tm and T are the transition temperature and experimental temperature, respectively, and k represents the transition rate.

T1 sequence (Q96D31 65-301 E106Q/N223A): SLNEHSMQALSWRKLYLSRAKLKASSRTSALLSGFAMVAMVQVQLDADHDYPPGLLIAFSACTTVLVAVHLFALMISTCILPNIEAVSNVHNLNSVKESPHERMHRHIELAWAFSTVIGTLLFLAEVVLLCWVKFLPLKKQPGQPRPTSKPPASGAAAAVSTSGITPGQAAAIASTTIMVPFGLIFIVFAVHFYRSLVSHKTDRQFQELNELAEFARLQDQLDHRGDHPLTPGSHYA

| binding to ORAI1 in membrane flotation (human ORAI1 (65-301)) | Substance | Tm (thermal unfolding) (CD thermal unfolding) [°C] |
| --- | --- | --- |
| clearly bound ORAI | STIM1 (233-498): truncated mouse STIM1 cytoplasmic fragment, residues 233-498, His-tagged recombinant protein | 48.5±0.4 |
| did not bind detectably | STIM1 (233-463): truncated mouse STIM1 cytoplasmic fragment, residues 233-463, His-tagged recombinant protein | 43.8±0.2 |

| Substance | binding to ORAI1 in membrane flotation (human ORAI1 (65-301)) | Tm (thermal unfolding) (CD thermal unfolding) [°C] |
| --- | --- | --- |
| STIM1^CT: cytoplasmic region of STIM1, mouse residues 233-685, His-tagged recombinant protein expressed in E coli | rose with the membranes into the upper part of the gradient | 47.0±0.3 |
